Experimental data published in paper PMC6746701, “A phyB-PIF1-SPA1 kinase regulatory complex promotes photomorphogenesis in Arabidopsis” (Nature Communications, 2019).

Columns and labels:
[1] = biological target: T1, phyB-GFP FL purified from yeast (Saccharomyces cerevisiae) (Arabidopsis, UniProt P14713 1-1172, phycocyanobilin (PCB) chromophore assembled); test: pull-down; in vitro: phytochromes purified from yeast (S. cerevisiae) and GST-PIF1; light-dependent; settings: both partners purified
T1 construct: not shown: GFP, C-terminal, kept
T1 sequence (looked up): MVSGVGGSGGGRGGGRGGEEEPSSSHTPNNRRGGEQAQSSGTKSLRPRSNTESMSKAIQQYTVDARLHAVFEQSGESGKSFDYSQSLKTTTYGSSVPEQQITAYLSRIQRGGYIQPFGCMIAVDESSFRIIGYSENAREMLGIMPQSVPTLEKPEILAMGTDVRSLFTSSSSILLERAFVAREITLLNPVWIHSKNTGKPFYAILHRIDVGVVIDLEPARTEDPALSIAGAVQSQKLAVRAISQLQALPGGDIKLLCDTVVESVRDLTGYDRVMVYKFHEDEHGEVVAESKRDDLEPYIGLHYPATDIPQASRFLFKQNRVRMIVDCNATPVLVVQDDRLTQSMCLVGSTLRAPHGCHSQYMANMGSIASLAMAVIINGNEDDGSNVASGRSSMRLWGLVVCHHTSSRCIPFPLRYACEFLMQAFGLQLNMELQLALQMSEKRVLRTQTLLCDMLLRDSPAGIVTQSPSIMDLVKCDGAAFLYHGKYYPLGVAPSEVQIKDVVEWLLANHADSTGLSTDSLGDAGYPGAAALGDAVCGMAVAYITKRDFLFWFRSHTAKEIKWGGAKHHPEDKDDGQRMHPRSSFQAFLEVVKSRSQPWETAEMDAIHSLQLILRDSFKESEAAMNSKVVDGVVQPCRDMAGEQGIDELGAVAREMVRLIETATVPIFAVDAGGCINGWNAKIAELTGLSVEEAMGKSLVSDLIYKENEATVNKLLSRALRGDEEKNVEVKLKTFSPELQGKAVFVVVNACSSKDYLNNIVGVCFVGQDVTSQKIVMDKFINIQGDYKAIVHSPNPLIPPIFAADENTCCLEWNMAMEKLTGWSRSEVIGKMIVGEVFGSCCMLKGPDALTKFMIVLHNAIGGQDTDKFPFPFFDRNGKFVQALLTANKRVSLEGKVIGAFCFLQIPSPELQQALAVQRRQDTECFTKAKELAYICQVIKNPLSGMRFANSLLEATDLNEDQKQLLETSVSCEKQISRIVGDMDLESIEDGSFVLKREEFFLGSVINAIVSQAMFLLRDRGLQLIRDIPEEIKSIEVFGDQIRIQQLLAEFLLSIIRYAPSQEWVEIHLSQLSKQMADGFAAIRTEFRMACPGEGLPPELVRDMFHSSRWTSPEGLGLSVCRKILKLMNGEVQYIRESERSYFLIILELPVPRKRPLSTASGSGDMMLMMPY

[2] = biological target: T2, phyB-GFP ΔC purified from yeast (Saccharomyces cerevisiae) (Arabidopsis, UniProt P14713 1-1092, phycocyanobilin (PCB) chromophore assembled); test: as above; settings: both partners purified
T2 construct: phytochrome B (phyB), Arabidopsis, residues 1-1092 (lacks the last 80 amino acids); The methods describe the yeast purification only for the full-length protein; also called phyB ΔC-GFP; source: Saccharomyces cerevisiae, purified; not shown: GFP, C-terminal, kept
T2 sequence (looked up): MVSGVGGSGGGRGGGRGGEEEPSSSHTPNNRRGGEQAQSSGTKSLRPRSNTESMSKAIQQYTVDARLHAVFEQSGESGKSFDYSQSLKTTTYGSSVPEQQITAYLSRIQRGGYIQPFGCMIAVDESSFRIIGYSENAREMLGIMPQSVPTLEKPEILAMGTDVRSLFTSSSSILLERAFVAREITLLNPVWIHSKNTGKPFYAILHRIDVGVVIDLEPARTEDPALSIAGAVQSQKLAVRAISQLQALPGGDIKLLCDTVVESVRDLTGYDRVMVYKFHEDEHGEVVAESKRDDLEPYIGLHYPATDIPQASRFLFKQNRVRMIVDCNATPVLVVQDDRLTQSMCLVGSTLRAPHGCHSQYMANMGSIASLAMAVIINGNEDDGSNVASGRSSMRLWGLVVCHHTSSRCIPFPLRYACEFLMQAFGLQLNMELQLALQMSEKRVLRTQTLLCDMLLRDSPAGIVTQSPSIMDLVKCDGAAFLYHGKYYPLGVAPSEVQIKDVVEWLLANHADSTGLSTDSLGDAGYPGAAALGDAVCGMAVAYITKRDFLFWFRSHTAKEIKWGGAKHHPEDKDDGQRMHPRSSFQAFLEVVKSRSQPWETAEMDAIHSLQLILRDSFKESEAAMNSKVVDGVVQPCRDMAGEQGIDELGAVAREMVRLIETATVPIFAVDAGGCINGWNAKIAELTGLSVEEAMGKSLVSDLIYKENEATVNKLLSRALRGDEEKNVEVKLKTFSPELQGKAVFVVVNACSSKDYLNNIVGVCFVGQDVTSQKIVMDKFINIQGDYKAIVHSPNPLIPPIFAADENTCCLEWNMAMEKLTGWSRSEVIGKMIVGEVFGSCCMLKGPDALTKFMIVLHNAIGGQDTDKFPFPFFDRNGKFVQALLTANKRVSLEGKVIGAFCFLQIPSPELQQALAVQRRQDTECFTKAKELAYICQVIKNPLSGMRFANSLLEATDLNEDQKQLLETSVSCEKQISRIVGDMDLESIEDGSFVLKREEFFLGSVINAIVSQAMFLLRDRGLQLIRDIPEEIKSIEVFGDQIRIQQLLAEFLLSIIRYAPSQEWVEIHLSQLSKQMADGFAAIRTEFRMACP

binding result [1]: binds
binding result [2]: binds
B1: GST-PIF1-strep (natural protein, Arabidopsis, UniProt Q8GZM7 1-478, looked up)
chain: MHHFVPDFDTDDDYVNNHNSSLNHLPRKSITTMGEDDDLMELLWQNGQVVVQNQRLHTKKPSSSPPKLLPSMDPQQQPSSDQNLFIQEDEMTSWLHYPLRDDDFCSDLLFSAAPTATATATVSQVTAARPPVSSTNESRPPVRNFMNFSRLRGDFNNGRGGESGPLLSKAVVRESTQVSPSATPSAAASESGLTRRTDGTDSSAVAGGGAYNRKGKAVAMTAPAIEITGTSSSVVSKSEIEPEKTNVDDRKRKEREATTTDETESRSEETKQARVSTTSTKRSRAAEVHNLSERKRRDRINERMKALQELIPRCNKSDKASMLDEAIEYMKSLQLQIQMMSMGCGMMPMMYPGMQQYMPHMAMGMGMNQPIPPPSFMPFPNMLAAQRPLPTQTHMAGSGPQYPVHASDPSRVFVPNQQYDPTSGQPQYPAGYTDPYQQFRGLHPTQPPQFQNQATSYPSSSRVSSSKESEDHGNHTTG
notes: source: E. coli BL21(DE3), purified (Strep-Tactin Sepharose); not shown: GST, N-terminal, kept; Strep tag, C-terminal, kept
